Data from US20150132331A1.

Target: HA stem domain construct mutant M6 (A/California/05/2009 (H1N1) HA stem fused to foldon, refolded trimer) (Influenza A virus A/California/05/2009 (H1N1))

Substance: antibody C179 (Mouse IgG) (TAKAR Bio INC.)
- fold better recognition than commercial full-length HA: 30 fold
